Results taken from patent US20250043022A1 (JIANGSU HENGRUI PHARMACEUTICALS, published 2025).

Experiments:
[1] = target: T1, human PSMA on cells (Cho-hPSMA, CHO-K1 cells overexpressing full-length human PSMA) (human, UniProt Q04609 1-750); test: flow cytometry, Cho-hPSMA cells
T1 construct: whole, on cells; also called cell surface PSMA; PSMA-expressing Lncap cells
Procedure: The binding activity of antibodies to the stably transfected cell strain Cho-hPSMA, which overexpresses human PSMA, was measured by flow cytometry in this test example. The full-length gene encoding human PSMA was cloned into the mammalian cell expression vector pCDH. HEK293T cells (ATCC® CRL-11268) were co-transfected with three plasmids-pVSV-G, pCMV-dR8.91, and pCDH-human PSMA- to package viruses. After 48 h of transfection, viruses were collected to infect CHO-K1 cells.
Experiment 1: Cho-hPSMA was cultured in F12 medium with 10% FBS. The medium to which cells were inoculated was incubated in a 37° C., 5% CO₂ incubator for 2 days, and cells were added to a cell plate at 1×10⁵ cells/well and washed by centrifugation. Antibodies were serially diluted, and the antibody solutions were added to the cell plate at 100 μL/well. The plate was incubated at 4° C. for 1 h and then washed. An AF488-Goat Anti-human IgG Fc fluorescent secondary antibody dilution (1:400) was added to the cell plate at 100 μL/well, and the plate was incubated at 4° C. for 1 h and then washed. PBS was added to the cell plate at 100 μL/well before plate reading.

[2] = target: T1, human PSMA on cells (Cho-hPSMA, CHO-K1 …); test: cell-based or functional assay
hPDL1 = hPDL1 (human, UniProt Q9NZQ7 19-238); test: ELISA
hCTLA4 = hCTLA4 (human, UniProt P16410 36-161); test: ELISA
Sequence of hCTLA4 (P16410 36-161 limits assumed): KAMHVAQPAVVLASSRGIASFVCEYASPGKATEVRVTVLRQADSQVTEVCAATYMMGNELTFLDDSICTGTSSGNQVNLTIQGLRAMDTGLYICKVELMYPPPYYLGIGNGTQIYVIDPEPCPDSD

Sequence of hPDL1 (Q9NZQ7 19-238 limits assumed): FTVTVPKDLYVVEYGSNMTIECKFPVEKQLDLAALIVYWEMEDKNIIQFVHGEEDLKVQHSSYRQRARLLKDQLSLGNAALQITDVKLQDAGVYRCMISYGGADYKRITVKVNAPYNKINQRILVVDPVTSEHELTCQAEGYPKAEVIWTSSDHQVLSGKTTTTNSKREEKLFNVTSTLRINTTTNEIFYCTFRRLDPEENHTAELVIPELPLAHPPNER
T1 sequence (Q04609 whole entry): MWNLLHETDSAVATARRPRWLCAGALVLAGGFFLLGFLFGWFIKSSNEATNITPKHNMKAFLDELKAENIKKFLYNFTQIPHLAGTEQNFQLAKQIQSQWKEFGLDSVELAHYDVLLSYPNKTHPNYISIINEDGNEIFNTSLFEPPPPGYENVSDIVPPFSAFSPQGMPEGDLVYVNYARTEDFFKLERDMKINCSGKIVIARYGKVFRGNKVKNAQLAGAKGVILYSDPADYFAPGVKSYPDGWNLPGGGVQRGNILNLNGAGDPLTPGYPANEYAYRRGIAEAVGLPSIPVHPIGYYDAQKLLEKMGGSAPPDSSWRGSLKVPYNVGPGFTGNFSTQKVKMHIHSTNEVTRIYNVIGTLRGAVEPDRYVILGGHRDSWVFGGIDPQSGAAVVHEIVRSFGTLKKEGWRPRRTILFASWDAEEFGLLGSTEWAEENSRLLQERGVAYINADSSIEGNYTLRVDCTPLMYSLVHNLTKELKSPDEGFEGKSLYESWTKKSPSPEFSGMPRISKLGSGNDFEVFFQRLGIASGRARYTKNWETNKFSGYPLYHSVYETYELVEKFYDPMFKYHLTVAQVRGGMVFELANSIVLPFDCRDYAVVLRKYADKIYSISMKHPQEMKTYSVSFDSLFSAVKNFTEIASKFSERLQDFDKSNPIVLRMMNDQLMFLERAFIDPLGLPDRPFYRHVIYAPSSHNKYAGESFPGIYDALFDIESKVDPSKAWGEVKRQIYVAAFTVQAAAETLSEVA

EC50 [1] [µg/mL]	EC50 (hPDL1) [nM]	EC50 (hCTLA4) [nM]	Binder	also measured
1.09			hu13H2L2 (antibody, human IgG1, kappa, V domains shown) VH: EVTLKESGPVLVKPTETLTLTCTVSGFSLSNYAISWIRQPPGKALEWLGVIWTGGGTHYNSALKSRLTISKDTSKSQVVLTMTNMDPVDTARYYCARKGNYYGSSLYYYAMNYWGQGTTVTVSS VL: DIQMTQSPSSLSASVGDRVTITCRASQDISNYLNWYQQKPDGAPKLLIYYTSRLQSGVPSRFSGSGSGTDYTLTISSLQPEDFATYYCQQGDTLPYTFGGGTKVEIKR	
1.05			hu13H2L1 (antibody, human IgG1, kappa, V domains shown) VH: EVTLKESGPVLVKPTETLTLTCTVSGFSLSNYAISWIRQPPGKALEWLGVIWTGGGTHYNSALKSRLTISKDTSKSQVVLTMTNMDPVDTARYYCARKGNYYGSSLYYYAMNYWGQGTTVTVSS VL: DIQMTQSPSSLSASVGDRVTITCRASQDISNYLNWYQQKPGKAPKLLIYYTSRLQSGVPSRFSGSGSGTDFTLTISSLQPEDFATYYCQQGDTLPYTFGGGTKVEIKR	
1.01			hu13H1L3 (antibody, human IgG1, kappa, V domains shown) VH: EVTLKESGPVLVKPTETLTLTCTVSGFSLSNYAISWIRQPPGKALEWLAVIWTGGGTHYNSALKSRLTISKDTSKSQVVLTMTNMDPVDTATYYCARKGNYYGSSLYYYAMNYWGQGTTVTVSS VL: DIQMTQSPSSLSASVGDRVTITCRASQDISNYLNWYQQKPDGTVKLLIYYTSRLQSGVPSRFSGSGSGTDYTLTISSLQPEDFATYYCQQGDTLPYTFGGGTKVEIKR	
0.981			hu13H1L2 (antibody, human IgG1, kappa, V domains shown) VH: EVTLKESGPVLVKPTETLTLTCTVSGFSLSNYAISWIRQPPGKALEWLAVIWTGGGTHYNSALKSRLTISKDTSKSQVVLTMTNMDPVDTATYYCARKGNYYGSSLYYYAMNYWGQGTTVTVSS VL: DIQMTQSPSSLSASVGDRVTITCRASQDISNYLNWYQQKPDGAPKLLIYYTSRLQSGVPSRFSGSGSGTDYTLTISSLQPEDFATYYCQQGDTLPYTFGGGTKVEIKR	
1.1			hu13H3L2 (antibody, human IgG1, kappa, V domains shown) VH: EVTLKESGPVLVKPTETLTLTCTVSGFSLTNYAISWIRQPPGKGLEWLGVIWTGGGTHYNSALKSRLTISKDNSKSQVVLTMTNMDPVDTARYYCARKGNYYGSSLYYYAMNYWGQGTTVTVSS VL: DIQMTQSPSSLSASVGDRVTITCRASQDISNYLNWYQQKPDGAPKLLIYYTSRLQSGVPSRFSGSGSGTDYTLTISSLQPEDFATYYCQQGDTLPYTFGGGTKVEIKR	
1.5			hu13H3L3 (antibody, human IgG1, kappa, V domains shown) VH: EVTLKESGPVLVKPTETLTLTCTVSGFSLTNYAISWIRQPPGKGLEWLGVIWTGGGTHYNSALKSRLTISKDNSKSQVVLTMTNMDPVDTARYYCARKGNYYGSSLYYYAMNYWGQGTTVTVSS VL: DIQMTQSPSSLSASVGDRVTITCRASQDISNYLNWYQQKPDGTVKLLIYYTSRLQSGVPSRFSGSGSGTDYTLTISSLQPEDFATYYCQQGDTLPYTFGGGTKVEIKR	
1.14			hu13H2L3 (antibody, human IgG1, kappa, V domains shown) VH: EVTLKESGPVLVKPTETLTLTCTVSGFSLSNYAISWIRQPPGKALEWLGVIWTGGGTHYNSALKSRLTISKDTSKSQVVLTMTNMDPVDTARYYCARKGNYYGSSLYYYAMNYWGQGTTVTVSS VL: DIQMTQSPSSLSASVGDRVTITCRASQDISNYLNWYQQKPDGTVKLLIYYTSRLQSGVPSRFSGSGSGTDYTLTISSLQPEDFATYYCQQGDTLPYTFGGGTKVEIKR	
1.05			hu13H3L1 (antibody, human IgG1, kappa, V domains shown) VH: EVTLKESGPVLVKPTETLTLTCTVSGFSLTNYAISWIRQPPGKGLEWLGVIWTGGGTHYNSALKSRLTISKDNSKSQVVLTMTNMDPVDTARYYCARKGNYYGSSLYYYAMNYWGQGTTVTVSS VL: DIQMTQSPSSLSASVGDRVTITCRASQDISNYLNWYQQKPGKAPKLLIYYTSRLQSGVPSRFSGSGSGTDFTLTISSLQPEDFATYYCQQGDTLPYTFGGGTKVEIKR	
0.947			hu13H1L1 (antibody, human IgG1, kappa, V domains shown) VH: EVTLKESGPVLVKPTETLTLTCTVSGFSLSNYAISWIRQPPGKALEWLAVIWTGGGTHYNSALKSRLTISKDTSKSQVVLTMTNMDPVDTATYYCARKGNYYGSSLYYYAMNYWGQGTTVTVSS VL: DIQMTQSPSSLSASVGDRVTITCRASQDISNYLNWYQQKPGKAPKLLIYYTSRLQSGVPSRFSGSGSGTDFTLTISSLQPEDFATYYCQQGDTLPYTFGGGTKVEIKR	
			2-F2 (bispecific antibody) heavy 1: not shown light 1: EIVLTQSPDFQSVTPKEKVTITCSASSSVSHMYWYQQKPDQSPKLLIYRTSNLASGVPSRFSGSGSGTDFTLTINSLEAEDAATYYCQQYHSYPLMFGQGTKLEIKRTVAAPSVFIFPPSDEQLKSGTASVVCLLNNFYPREAKVQWKVDNALQSGNSQESVTEQDSKDSTYSLSSTLTLSKADYEKHKVYACEVTHQGLSSPVTKSFNRGEC heavy 2: not shown light 2: not shown	cytotoxic activity against Lncap, EC50 (LDH release, PBMC E:T 10:1, 48 h) [2]: 0.0084 nM; cytotoxic activity against Lncap, Maximum lysis rate % [2]: 48.7%
	0.7	6.7	PL-5 (bispecific antibody) chain 1: not shown chain 2: DIVLTQSPASLAVSPGQRATITCRASESVSIHGTHLMHWYQQKPGQPPKLLIYAASKLESGVPARFSGSGSGTDFTLTINPVEAEDTANYYCQQSFEDPLTFGQGTKLEIKGGGGSGIPPKIECLPIDISIDEGKVLTVASAFTGEPTPEVTWSTGGRKIHSQEQGRFHIENTDDSTTLTIKDVQKQDGGLYTLTLRNEFGSDSATVNIHIRSI chain 3: not shown chain 4: not shown	
	0.6	5.5	PL-9 (bispecific antibody) chain 1: not shown chain 2: DIVLTQSPASLAVSPGQRATITCRASESVSIHGTHLMHWYQQKPGQPPKLLIYAASKLESGVPARFSGSGSGTDFTLTINPVEAEDTANYYCQQSFEDPLTFGQGTKLEIKGGGGSGIPPKIECLPIDISIDEGKCLTVASAFTGEPTPEVTWSTGGRKIHSQEQGRFHIENTDDSTTLTIKDVQKQDGGLYTLTLRNEFGSDSATVNIHIRSI chain 3: not shown chain 4: not shown	
	0.5	7.3	PL-7 (bispecific antibody) chain 1: not shown chain 2: DIVLTQSPASLAVSPGQRATITCRASESVSIHGTHLMHWYQQKPGQPPKLLIYAASKLESGVPARFSGSGSGTDFTLTINPVEAEDTANYYCQQSFEDPLTFGQGTKLEIKGGGGSGIPPKIECLPIDISIDEGKVLTVASCFTGEPTPEVTWSTGGRKIHSQEQGRFHIENTDDSTTLTIKDVQKQDGGLYTLTLRNEFGSDSATVNIHIRSI chain 3: not shown chain 4: not shown	
	1.4	14.5	PL-8 (bispecific antibody) chain 1: not shown chain 2: DIVLTQSPASLAVSPGQRATITCRASESVSIHGTHLMHWYQQKPGQPPKLLIYAASKLESGVPARFSGSGSGTDFTLTINPVEAEDTANYYCQQSFEDPLTFGQGTKLEIKGGGGSGIPPKIECLPIDISIDEGKVLTVASAFTGEPTPEVTWSTGGRKIHSQEQGRFHIENTDDSTTLTIKDVQKQDGGLYTLTLRNEFGSDSATVNIHIRSI chain 3: not shown chain 4: not shown	
	0.8	5.3	PL-6 (bispecific antibody) chain 1: not shown chain 2: DIVLTQSPASLAVSPGQRATITCRASESVSIHGTHLMHWYQQKPGQPPKLLIYAASKLESGVPARFSGSGSGTDFTLTINPVEAEDTANYYCQQSFEDPLTFGQGTKLEIKGGGGSGIPPKIECLPIDISIDEGKCLTVASAFTGEPTPEVTWSTGGRKIHSQEQGRFHIENTDDSTTLTIKDVQKQDGGLYTLTLRNEFGSDSATVNIHIRSI chain 3: not shown chain 4: not shown	
	0.6	6.9	PL-10 (bispecific antibody) chain 1: not shown chain 2: DIVLTQSPASLAVSPGQRATITCRASESVSIHGTHLMHWYQQKPGQPPKLLIYAASKLESGVPARFSGSGSGTDFTLTINPVEAEDTANYYCQQSFEDPLTFGQGTKLEIKGGGGSGIPPKIECLPIDISIDEGKVLTVASCFTGEPTPEVTWSTGGRKIHSQEQGRFHIENTDDSTTLTIKDVQKQDGGLYTLTLRNEFGSDSATVNIHIRSI chain 3: not shown chain 4: not shown	
	0.6	5.6	PL-11 (bispecific antibody) chain 1: not shown chain 2: DIVLTQSPASLAVSPGQRATITCRASESVSIHGTHLMHWYQQKPGQPPKLLIYAASKLESGVPARFSGSGSGTDFTLTINPVEAEDTANYYCQQSFEDPLTFGQGTKLEIKRTVASGIPPKIECLPIDISIDEGKVLTVASAFTGEPTPEVTWSTGGRKIHSQEQGRFHIENTDDSTTLTIKDVQKQDGGLYTLTLRNEFGSDSATVNIHIRSI chain 3: not shown chain 4: not shown	
